The target in assay [1] is ENO1 deletion mutant Δ1-189 (human) (UniProt P06733). Briefly: ELISA, mutant protein coated, 10 microgram EN10 mAb.
Assay [2] has as its target ENO1 deletion mutant Δ1-297 (human) (UniProt P06733). The description is as above.

B1: EN10 mAb (antibody, V domains shown)
VH: EVQLQQSGPELVKPGASVKMSCKASGYTFTSCVMNWVKQKPGQGLEWIGYINPYNDGTKYNEKFKGKATLTSDKSSSTAYMELSSLTSEDSAVYYCAREGFYYGNFDNWGQGTTLTVSS
VL: DIQMTQSPASLSASVGETVTITCRASENIYSYLTWYQQKQGKSPQLLVYNAKTLPEGVPSRFSGSGSGTQFSLKINSLQPEDFGSYYCQHHYGTPYTFGGGTKLEITR
In assay [1], B1 registered an OD405 of 1.43 OD405 and a percent of the OD405 of wild type ENO1 of 42%. In assay [2], this molecule registered an OD405 of 1.56 OD405 and a percent of the OD405 of wild type ENO1 of 39%.
